What all share (type): cell-based, Narcissus aff. pseudonarcissus MK-2014
Settings in all cases: heme

Substrate in data set [1]: COc1ccc(CNCCc2ccc(O)cc2)cc1O
Put plainly: LC-MS/MS enzyme kinetics with Sf9-expressed CYP96T1; CPR-only negative control.

Substrate in data set [2]: COc1ccc(CN(C)CCc2ccc(O)cc2)cc1O
Described as above.

Substrate in data set [3]: COc1cc2c(cc1O)[C@@H](Cc1ccc(O)cc1)NCC2
Kind of data set: LC-MS/MS enzyme kinetics with Sf9-expressed CYP96T1.

Substrate in data set [4]: COc1cc2c(cc1O)[C@H](Cc1ccc(O)cc1)NCC2
The description is as above.

B1: CYP96T1 (Narcissus aff. pseudonarcissus MK-2014) (protein)
chain: MATSSSAWLMFSDHYPEILIAIACFLIFSLLLSARSSSEDSLPYNWPIFGMLPAIISNNQFNDFTTARLRKMGWTFIFKGPWLLDMDYIFTCDPSNINHMFNDNFENYPKGELGKVFDIFGNNIFNADGDLWHDHRKMAQTILWDGNYRTMQATFIRNKMDNALIPILDSAASKRKPVDLQDVFFRFTFDTSCFSVLAADPESLTMEFPAVPFSKAADQALDAALTRHITPRLIWKLKRFFNVGSERTLAVAWKVIDSYIYDKIAELKAKRKLVGKINSYDAVSFYMDNFNIHDDKFLRDNAFTYLLAQRNTQSLTMTWLFYALFENPKVELKILSELKSIVDESSERKFNDGFALFDSNMIQSAIYLHATLCEALRIYPPVPFEIKDAHKADVLPSGHKVRAGEKILFSPYAMARMKGIWGDDCLEFKPERWITGNGTLKHEPAYKFFAFSAGPRICLGKELSFTQMKMVVATIIYNFHLQMVKGHVVEQSNSILMDMKHGLMVQVRKRSVM
notes: CYP96T1 ORF (GenBank KT693311) expressed in Sf9 cells, co-expressed with Eschscholzia californica CPR
For orientation: Km means the concentration of substrate that gives half-maximal velocity. By kcat is commonly meant the number of substrate molecules converted per active site and unit of time at saturation. In general, kcat/Km refers to the turnover number divided by the Michaelis constant. B1: the Km in data set [1] is 1.13 ± 0.54 µM; in data set [2] it was 3.28 ± 2.27 µM; in data set [3], 659 ± 104 µM; in data set [4], 637 ± 156 µM. For the same protein, the kcat in data set [1] is 0.25 ± 0.0338 s⁻¹; in data set [2] it was 0.0407 ± 0.009 s⁻¹; in data set [3], 0.0345 ± 0.00233 s⁻¹; in data set [4] it was 0.0223 ± 0.0025 s⁻¹. Further, the specificity constant (kcat/Km) in data set [1] amounted to 217000 M⁻¹ s⁻¹; in data set [2] it was 12400 M⁻¹ s⁻¹; in data set [3], 52.5 M⁻¹ s⁻¹; in data set [4] it was 35.2 M⁻¹ s⁻¹.

The record behind these values is publication PMC4766306, “CYP96T1 of Narcissus sp. aff. pseudonarcissus Catalyzes Formation of the Para-Para' C-C Phenol Couple in the Amaryllidaceae Alkaloids” (Frontiers in Plant Science, 2016).
